Measurements from patent publication US20120107933A1 (GOVERNMENT OF THE UNITED STATES AS REPRESENTED BY THE …, published 2012).

Key:
[1] = target: rabbit IgG Fc-human mesothelin fusion protein (full-length extracellular domain, 296-581) (rabbit; human) (UniProt Q13421); test: SPR (Biacore T100), […], kinetic titration
[2] = target: human mesothelin on the cell surface (A431/H9 transfectants and human cancer cell lines) (human) (UniProt Q13421); test: cell-based or functional assay
[3] = target: T1, rabbit IgG Fc-human mesothelin fusion protein (full-length extracellular domain, 296-581) (rabbit; human, UniProt Q13421 296-581); test: SPR (Biacore T100), rFc-mesothelin injected over amine-coupled HN1 mAb, kinetic titration
T1 construct: also called rFc-mesothelin; human mesothelin-Fc; not shown: rabbit IgG Fc

[4] = target: T1, rabbit IgG Fc-human mesothelin fusion …
[5] = target: human mesothelin (form not stated) (human, UniProt Q13421 296-581)
[6] = target: T2, mouse mesothelin (form not stated) (mouse, UniProt Q61468 298-600)
T2 sequence (looked up): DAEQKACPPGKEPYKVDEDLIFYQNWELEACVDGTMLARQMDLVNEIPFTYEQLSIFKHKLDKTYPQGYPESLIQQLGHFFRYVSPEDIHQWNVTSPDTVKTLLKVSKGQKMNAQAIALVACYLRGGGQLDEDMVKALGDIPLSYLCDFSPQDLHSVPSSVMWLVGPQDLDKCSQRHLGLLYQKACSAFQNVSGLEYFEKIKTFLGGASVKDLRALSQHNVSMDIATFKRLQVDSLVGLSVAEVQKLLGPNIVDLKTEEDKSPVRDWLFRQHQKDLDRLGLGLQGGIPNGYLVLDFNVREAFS

Sequence of human mesothelin on the cell surface (A431/H9 transfectants and human cancer cell lines) (human) (Q13421 other isoform, or with tags, fused parts or gaps limits assumed): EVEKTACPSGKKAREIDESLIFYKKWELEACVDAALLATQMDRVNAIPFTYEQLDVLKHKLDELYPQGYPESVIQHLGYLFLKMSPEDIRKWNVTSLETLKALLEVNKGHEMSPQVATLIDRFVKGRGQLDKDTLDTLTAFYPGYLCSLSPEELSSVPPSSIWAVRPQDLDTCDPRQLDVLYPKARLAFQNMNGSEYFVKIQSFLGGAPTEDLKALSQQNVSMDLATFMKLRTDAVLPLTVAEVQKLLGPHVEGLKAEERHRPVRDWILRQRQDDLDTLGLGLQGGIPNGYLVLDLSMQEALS
Sequence of human mesothelin (form not stated) (Q13421 other isoform, or with tags, fused parts or gaps limits assumed): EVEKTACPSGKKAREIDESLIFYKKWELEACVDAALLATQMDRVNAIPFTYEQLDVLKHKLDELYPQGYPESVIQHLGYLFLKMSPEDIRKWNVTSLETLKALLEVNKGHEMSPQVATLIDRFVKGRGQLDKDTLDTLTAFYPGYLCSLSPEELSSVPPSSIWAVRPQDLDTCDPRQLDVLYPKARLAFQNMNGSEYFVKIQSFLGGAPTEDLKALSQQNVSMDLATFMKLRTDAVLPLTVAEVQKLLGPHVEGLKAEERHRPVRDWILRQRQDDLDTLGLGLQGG

HN1 scFv immunotoxin (HN1 scFv fused to truncated Pseudomonas exotoxin PE38) (from UniProt P11439 278-389; P11439 406-638)
Kd [1]: 100 nM
Cytotoxic Assays (WST), IC50 of cell viability, H226 cells [2]: 0.013 µg/mL

HA22, an anti-CD22 scFv
Cytotoxic Assays (WST), IC50 of cell viability, H9 cells [2]: > 1 µg/mL
Cytotoxic Assays (WST), IC50 of cell viability, H226 cells [2]: > 1 µg/mL

B1: HN1 fully human IgG (IgG gamma1 kappa) (antibody, V domains shown)
VH: QVQLVQSGAEVKRPGASVQVSCRASGYSINTYYMQWVRQAPGAGLEWMGVINPSGVTSYAQKFQGRVTLTNDTSTNTVYMQLNSLTSADTAVYYCARWALWGDFGMDVWGKGTLVTVSS
VL: DIQMTQSPSTLSASIGDRVTITCRASEGIYHWLAWYQQKPGKAPKLLIYKASSLASGAPSRFSGSGSGTDFTLTISSLQPDDFATYYCQQYSNYPLTFGGGTKLEIKR
notes: also called HN1 IgG; HN1 mAb
Kd [3]: 3 nM
fold better affinity than the scFv molecule [4]: > 30 fold

B2: HN1 antibody (form not stated) (antibody, V domains shown)
VH: QVQLVQSGAEVKRPGASVQVSCRASGYSINTYYMQWVRQAPGAGLEWMGVINPSGVTSYAQKFQGRVTLTNDTSTNTVYMQLNSLTSADTAVYYCARWALWGDFGMDVWGKGTLVTVSS
VL: DIQMTQSPSTLSASIGDRVTITCRASEGIYHWLAWYQQKPGKAPKLLIYKASSLASGAPSRFSGSGSGTDFTLTISSLQPDDFATYYCQQYSNYPLTFGGGTKLEIK
Kd [5]: ~7.5 nM

B3: HN2 antibody (form not stated) (antibody, V domains shown)
VH: EVQLLESGGGLVQPGGSLRPSCAASGFTFSSYAMSWVRQAPGKGLEWVSAISGSGGSTHYADSVKGRFTISRDNSKNTLYLQMNSLRAEDTAVYYCVRGGALGFDNWGRGTMVTVSS
VL: VLTQPPSVSEAPRQRVTISCSGSTSNIGSNVVNWYQQFPGKPPKVVIYYDDLVASGVSDRFSGSRSGTSASLAISGLQSEDEADYYCSAWDDSLNAWVFGGGTKVTV
Kd [5]: ~1.5 nM
Kd [6]: ~1.5 nM
